assay: yeast display, Sf9 membrane polyspecificity reagent, FACS + sequencing; frameworks hold sequencing errors
Summary of the method: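 Synthetic nanobody libraries on Saccharomyces cerevisiae BJ5465 were galactose-induced for 36–48 hours, stained 1 hour at 4 °C with 10% biotinylated, detergent-solubilized Sf9 membrane reagent and enriched on streptavidin microbeads. FACS then separated cells into low and high (top ~1%) gates by anti-HA (expression) and streptavidin (reagent binding) fluorescence. Genes were colony-PCR amplified, MiSeq 2 × 250 sequenced and CDR-length filtered. A clone's polyreactivity label is that of its gate of origin.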

**Q.** For “QVQLVESGGGLVQAGGSLRLSCAASGFIFYSNAMGWYRQAPGKERELVAAISRRGGSTYYADSVKGRFTISRDNAKNTVYLQMNSLKPEDTAVYYCAARVVSGFDSWGQGTQVTVSS”, which “polyreactivity (PSR sort gate)” value is on record?
**A.** The value was “high polyreactivity”.

**Q.** For “QVQLVESGGGLVQAGGSLRLSCAASGFIFYSNAMGWYRQAPGKERELVATITGDGGTTYYADSVKGRFTISRDNAKNTVYLQMNSLKPEDTAVYYCAKDYIYRGYYTDFRYEDYDYWGQGTQVTVSS”, which “polyreactivity (PSR sort gate)” value is on record?
**A.** Its value is “low polyreactivity”.

**Q.** Which “polyreactivity (PSR sort gate)” value does the source give for “QVQLVESGGGLVQAGGSLRLSCAASGFIFYSYAMGWYRQAPGKERELVAAIDWDDGTTYYADSVKGRFTISRDNAKNTVYLQMNSLKPEDTAVYYCAAESYYGAYDYWGQGTQVTVSS” here?
**A.** Its value is “high polyreactivity”.

**Q.** Which “polyreactivity (PSR sort gate)” value does the source give for “QVQLVESGGGLVQAGGSLRLSCAASGFIFYSYAMGWYRQAPGKERELVAAISTSGGSTYYADSVKGRFTISRDNAKNTVYLQMNSLKPEDTAVYYCNARGTRASRYDYWGQGTQVTVSS” here?
**A.** The value was “high polyreactivity”.

**Q.** Which “polyreactivity (PSR sort gate)” value does the source give for “QVQLVESGGGLVQAGGSLRLSCAASGFIFYSYAMGWYRQAPGKERELVAAISWSGGRTYYADSVKGRFTISRDNAKNTVYLQMNSLKPEDTAVYYCNADDYSFSFTVPYYIEYDYWGQGTQVTVSS” here?
**A.** Its value is “high polyreactivity”.

**Q.** Which “polyreactivity (PSR sort gate)” value does the source give for “QVQLVESGGGLVQAGGSLRLSCAASGFIFYSYGMGWYRQAPGKERELVASITSSGTRTYYADSVKGRFTISRDNAKHTVYLQMNSLKPEDTAVYYCAASRFYYGIAYYRYDYWGQGTHVTVSS” here?
**A.** The value was “high polyreactivity”.

**Q.** With “QVQLVESGGGLVQAGGSLRLSCAASGFIFYTKAMGWSRQAPGKERELVATITTSGGRTYYADSVKGRFTISRDNAKNYVYLQMYSMKPEDTAFYYSATRYVVIEYDYWGQGTQVTVSS” as the sequence, how does the “polyreactivity (PSR sort gate)” value read?
**A.** Its value is “low polyreactivity”.

**Q.** With “QVQLVESGGGLVQAGGSLRLSCAASGFIFYVNAMGWYREAPGNERQLVAAISLIGGSTYYADSVKGRFTISRDNAKNTVYLQMNSLIPEDTAVYYCAADPFPGVYDDAIIDYDYWGQGTQVTVSS” as the sequence, how does the “polyreactivity (PSR sort gate)” value read?
**A.** The value was “low polyreactivity”.

**Q.** For “QVQLVESGGGLVQAGGSLRLSCAASGFIFYVYAMGWYRQARGKERELVAAISGGGDSTYYADSVKGRFTISRDNAKNTVYLQMNSLKPEHTAVYYCAAEPWANTPGEAGSPFDYWGQGTQVTVSS”, which “polyreactivity (PSR sort gate)” value is on record?
**A.** The value was “low polyreactivity”.

**Q.** For “QVQLVESGGGLVQAGGSLRLSCAASGFIFYYNAMGWDRQAPGKERELVAAIDSGGRTNYADSVKGRFTISRDNAKNTVYLQMNSLKPEDTAVYYCATDPYQPYEGDYWGQGTQVTVSS”, which “polyreactivity (PSR sort gate)” value is on record?
**A.** The value was “low polyreactivity”.

**Q.** For “QVQLVESGGGLVQAGGSLRLSCAASGFIFYYNAMGWYRQAPGKERELVAAIDSGGRTNYADSVKGRFTISRDNAKNTVYLQMNSLKPEDTAVYYCAADVITYATYGTRKFQRYGYWGQGTQVTVSS”, which “polyreactivity (PSR sort gate)” value is on record?
**A.** Its value is “low polyreactivity”.

**Q.** Which “polyreactivity (PSR sort gate)” value does the source give for “QVQLVESGGGLVQAGGSLRLSCAASGFIFYYNAMGWYRQAPGKERELVAGISRSAGSTYYADSVKGRFTISRDNAKNTVYLQMNSLKPEDTAVYYCAALYLSYITGTSYYWGQGTQVTVSS” here?
**A.** Its value is “low polyreactivity”.

**Q.** For “QVQLVESGGGLVQAGGSLRLSCAASGFIFYYNAMGWYRQAPGKERELVATIRGSGGSTYYADSVKGRFTISRDTAKNTVYLHMNSLKPEDTAVYYCATTIYGLTSRLYYWGQGTQVTVSS”, which “polyreactivity (PSR sort gate)” value is on record?
**A.** Its value is “high polyreactivity”.

**Q.** For “QVQLVESGGGLVQAGGSLRLSCAASGFIFYYYAMGWYRPAPGKERELVAAISVRGGRTYYADSVKGRFTISRDNAKNTVYLQMNSLKPEDTAVYYCAADLYNRGRGSSQSYRTGYDYWGQGTQVTVSS”, which “polyreactivity (PSR sort gate)” value is on record?
**A.** The value was “high polyreactivity”.

**Q.** With “QVQLVESGGGLVQAGGSLRLSCAASGFIFYYYAMGWYRQAPGKERELVAGIDKTGGSTYYADSVKGRFTISRDNAKNPVYLQMNSLKPDDTAVYYCNAPYYRGGKDGYWGQGTQVTVSS” as the sequence, how does the “polyreactivity (PSR sort gate)” value read?
**A.** The value was “high polyreactivity”.

**Q.** For “QVQLVESGGGLVQAGGSLRLSCAASGFIFYYYDMGWYRQAPGKERELVAAISTGGSTYYADSVKGRFTISRDNAKNTVYLQMNSLKPEDTAVYYCAADSYWSPYDYWGQGTQVTVSS”, which “polyreactivity (PSR sort gate)” value is on record?
**A.** Its value is “high polyreactivity”.

**Q.** With “QVQLVESGGGLVQAGGSLRLSCAASGFIIAPNAMGWYRQAPGKDRELVAAISGGGSTYYADSVKGRFTISRDNAKNTVYLQMNSLKPEDTAVYYCAVAGRRGDEYDYWGQGTQVTVSS” as the sequence, how does the “polyreactivity (PSR sort gate)” value read?
**A.** Its value is “low polyreactivity”.

**Q.** With “QVQLVESGGGLVQAGGSLRLSCAASGFIIARNTMGWYRQAPAKERELVAAISSSGGSTYYADSVKGRFTISRDNAKNTFYLQMNCLKPEDTAVYYCNKGYTGLYGYDYWGQGTHVTVSS” as the sequence, how does the “polyreactivity (PSR sort gate)” value read?
**A.** Its value is “high polyreactivity”.

**Q.** With “QVQLVESGGGLVQAGGSLRLSCAASGFIIGDYAMGWYRQAPGKERELVAAITISGGGTYYADSVKGRFTISRDNAKNTVYLQMNSLKPEDTAVYYCAAGYYDLNLDTDFGFDYWGQGTQVTVSS” as the sequence, how does the “polyreactivity (PSR sort gate)” value read?
**A.** Its value is “low polyreactivity”.

**Q.** Which “polyreactivity (PSR sort gate)” value does the source give for “QVQLVESGGGLVQAGGSLRLSCAASGFIIGLYAMGWYRQAPGKERELVAAISGSGGSTYYADSVKGRFTISRDNAKNTVYLQMNSLKPEDTAVYYCNGAHGVHTYVYRYCYWGQGTQVTVSS” here?
**A.** The value was “low polyreactivity”.

**Q.** Which “polyreactivity (PSR sort gate)” value does the source give for “QVQLVESGGGLVQAGGSLRLSCAASGFIIGSYAMGWYRQAPGKERELVAAISRRTTNTYYADSVKGRFTISRDNAKNTVYLQMNSLKPEDTAVYYCARVTWYESDYWGQGTQVTVSS” here?
**A.** The value was “high polyreactivity”.

**Q.** For “QVQLVESGGGLVQAGGSLRLSCAASGFIIGSYTMGWNRQAPRKERELVASITKRGGSTYYADSVKGRFTISRDNAKNTVYLQMNSLKPEDTEVYYCAATYLFSHRSRYDYWGQGTQVTVSS”, which “polyreactivity (PSR sort gate)” value is on record?
**A.** Its value is “high polyreactivity”.

Reference: the nanobody polyreactivity screen of Harvey et al. (2022)
